{"source": "paper PMC2192624", "about": "(The Journal of Experimental Medicine, 1996)", "binders": {"B1": {"name": "Bob1 expressed from pCBOB1 (natural protein)", "chain": "MLWQKPTAPEQAPAPARPYQGVRVKEPVKELLRRKRGHASSGAAPAPTAVVLPHQPLATYTTVGPSCLDMEGSVSAVTEEAALCAGWLSQPTPATLQPLAPWTPYTEYVPHEAVSCPYSADMYVQPVCPSYTVVGPSSVLTYASPPLITNVTTRSSATPAVGPPLEGPEHQAPLTYFPWPQPLSTLPTSTLQYQPPAPALPGPQFVQLPISIPEPVLQDMEDPRRAASSLTIDKLLLEEEDSDAYALNHTLSVEGF"}}, "biological_target": "T1, Gal4 DNA-binding domain (DNABD) linked to the full-length CIITA (pSGCIITA) (UniProt P33076 1-1130)", "T1 sequence": "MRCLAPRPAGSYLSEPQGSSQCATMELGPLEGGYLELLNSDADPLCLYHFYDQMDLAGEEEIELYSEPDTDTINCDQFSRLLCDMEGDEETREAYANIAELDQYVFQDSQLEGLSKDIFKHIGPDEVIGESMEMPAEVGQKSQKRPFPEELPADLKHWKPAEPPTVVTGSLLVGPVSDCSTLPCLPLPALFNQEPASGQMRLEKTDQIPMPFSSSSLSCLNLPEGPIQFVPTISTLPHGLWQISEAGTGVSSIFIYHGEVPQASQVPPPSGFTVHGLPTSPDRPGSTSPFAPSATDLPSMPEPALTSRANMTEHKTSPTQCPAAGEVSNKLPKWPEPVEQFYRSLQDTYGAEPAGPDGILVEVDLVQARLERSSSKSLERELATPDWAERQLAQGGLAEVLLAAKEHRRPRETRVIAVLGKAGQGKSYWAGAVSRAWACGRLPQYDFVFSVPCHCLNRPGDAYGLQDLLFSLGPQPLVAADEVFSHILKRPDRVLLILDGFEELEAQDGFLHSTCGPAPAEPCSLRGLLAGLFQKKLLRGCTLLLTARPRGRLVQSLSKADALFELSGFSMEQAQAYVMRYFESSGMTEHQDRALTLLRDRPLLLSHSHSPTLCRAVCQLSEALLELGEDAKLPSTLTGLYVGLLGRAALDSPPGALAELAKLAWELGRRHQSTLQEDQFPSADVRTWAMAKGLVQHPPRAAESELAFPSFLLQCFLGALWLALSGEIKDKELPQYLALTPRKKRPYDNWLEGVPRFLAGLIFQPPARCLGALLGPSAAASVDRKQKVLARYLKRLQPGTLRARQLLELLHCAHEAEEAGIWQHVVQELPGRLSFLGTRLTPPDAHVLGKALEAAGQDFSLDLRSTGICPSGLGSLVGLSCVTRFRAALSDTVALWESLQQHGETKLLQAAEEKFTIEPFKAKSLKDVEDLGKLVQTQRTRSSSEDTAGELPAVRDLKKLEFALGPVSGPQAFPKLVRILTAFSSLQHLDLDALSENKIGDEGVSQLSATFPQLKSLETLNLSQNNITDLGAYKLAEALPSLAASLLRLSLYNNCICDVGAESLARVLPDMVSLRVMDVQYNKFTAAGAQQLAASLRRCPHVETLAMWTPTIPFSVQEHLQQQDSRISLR", "assay": "two-hybrid"}
{"binder": "B1", "values": [{"measurement": "fold transactivation of pDRAUASgCAT (CAT reporter, with OBS)", "value": 95, "unit": "fold"}, {"measurement": "fold transactivation of pG1E1bCAT (CAT reporter, no OBS)", "value": 90, "unit": "fold"}]}
